Measurements taken from patent US20260275312, “CRISPR NUCLEASE POLYPEPTIDES AND GENE EDITING SYSTEMS COMPRISING SUCH” (ARBOR BIOTECHNOLOGIES, INC., published 2026).

T1: Nuclease H (synthetic construct)
T1 chain: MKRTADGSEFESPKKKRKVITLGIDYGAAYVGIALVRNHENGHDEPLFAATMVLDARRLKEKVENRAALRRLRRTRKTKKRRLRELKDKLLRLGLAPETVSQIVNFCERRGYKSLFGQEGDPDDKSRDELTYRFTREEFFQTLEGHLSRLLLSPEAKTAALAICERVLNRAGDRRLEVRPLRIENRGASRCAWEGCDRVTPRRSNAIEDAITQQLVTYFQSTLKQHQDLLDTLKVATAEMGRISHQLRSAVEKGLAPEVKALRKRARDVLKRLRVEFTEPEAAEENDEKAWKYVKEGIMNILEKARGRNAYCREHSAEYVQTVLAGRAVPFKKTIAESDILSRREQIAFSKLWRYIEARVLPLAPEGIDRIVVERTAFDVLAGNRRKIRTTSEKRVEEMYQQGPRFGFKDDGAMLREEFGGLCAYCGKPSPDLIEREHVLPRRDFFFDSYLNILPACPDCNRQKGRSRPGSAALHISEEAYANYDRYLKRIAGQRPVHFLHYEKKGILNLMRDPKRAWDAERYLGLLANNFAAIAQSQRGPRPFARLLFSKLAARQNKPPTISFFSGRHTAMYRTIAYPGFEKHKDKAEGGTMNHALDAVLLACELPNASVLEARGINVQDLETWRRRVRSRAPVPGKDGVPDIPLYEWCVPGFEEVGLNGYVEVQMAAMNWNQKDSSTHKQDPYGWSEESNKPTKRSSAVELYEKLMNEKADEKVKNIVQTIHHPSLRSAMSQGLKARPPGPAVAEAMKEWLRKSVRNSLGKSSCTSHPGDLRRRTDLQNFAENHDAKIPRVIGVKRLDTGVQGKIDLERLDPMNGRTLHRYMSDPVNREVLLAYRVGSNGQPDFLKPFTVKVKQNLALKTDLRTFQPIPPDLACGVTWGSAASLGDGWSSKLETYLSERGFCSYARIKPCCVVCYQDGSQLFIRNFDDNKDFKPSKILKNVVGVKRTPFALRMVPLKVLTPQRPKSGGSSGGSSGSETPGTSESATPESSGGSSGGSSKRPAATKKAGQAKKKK

T2: Nuclease W E715R (synthetic construct, E715R)
T2 chain: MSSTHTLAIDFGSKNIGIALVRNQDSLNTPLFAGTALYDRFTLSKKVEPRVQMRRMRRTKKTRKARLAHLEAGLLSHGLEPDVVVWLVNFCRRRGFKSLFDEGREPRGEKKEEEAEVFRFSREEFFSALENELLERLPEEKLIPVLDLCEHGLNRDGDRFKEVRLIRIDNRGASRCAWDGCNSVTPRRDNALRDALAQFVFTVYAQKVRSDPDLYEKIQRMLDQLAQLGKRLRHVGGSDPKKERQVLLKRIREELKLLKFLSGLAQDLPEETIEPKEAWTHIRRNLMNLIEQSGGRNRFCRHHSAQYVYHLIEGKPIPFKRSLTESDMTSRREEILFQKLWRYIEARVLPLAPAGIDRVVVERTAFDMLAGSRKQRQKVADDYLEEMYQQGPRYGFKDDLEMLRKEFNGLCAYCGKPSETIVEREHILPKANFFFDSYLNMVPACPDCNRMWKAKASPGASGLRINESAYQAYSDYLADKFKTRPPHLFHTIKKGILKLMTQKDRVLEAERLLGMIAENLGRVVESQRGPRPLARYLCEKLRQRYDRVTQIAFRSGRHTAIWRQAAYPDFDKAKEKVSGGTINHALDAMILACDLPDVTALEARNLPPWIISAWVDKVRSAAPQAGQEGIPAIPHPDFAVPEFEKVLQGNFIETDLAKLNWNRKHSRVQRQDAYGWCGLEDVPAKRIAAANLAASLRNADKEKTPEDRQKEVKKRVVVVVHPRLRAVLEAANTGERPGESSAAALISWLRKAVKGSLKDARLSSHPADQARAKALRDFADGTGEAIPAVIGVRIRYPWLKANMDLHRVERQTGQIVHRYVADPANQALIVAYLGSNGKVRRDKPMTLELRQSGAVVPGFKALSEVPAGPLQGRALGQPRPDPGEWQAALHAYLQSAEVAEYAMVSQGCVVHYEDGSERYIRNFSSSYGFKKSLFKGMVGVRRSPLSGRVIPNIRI

B1: H AAVS1-T5 RNA guide ; AAVS1-T5 target (H) (ssRNA ; dsDNA)
RNA: GGCUAUAAUCCAUGCUGACCGUUUCAAUCAACCUGAUCUCUCUGCUUGCGCUGCAGGCUUCAUAAGAUCAGUAGGUUGAAAAGAGCAUCCGUCCGACAUGCACUCCGGGAUGGGGCAGUCCCGGCUCUUGCGGUUCCCGAUGCAGUUAUGUGUCCGCGGAACACGGUGUCGGACACGUCGCAAGACAGGAUGUGAGCCCAUUAUCCACAUUAGGAUCAAUGUACGCAUGAGCAGUCCGCAAUGCCGGGGACGCU
DNA 1: GGCTATAATCCATGCTGACC
DNA 2: GGTCAGCATGGATTATAGCC
B2: W EMX1-T5 RNA guide ; EMX1-T5 target (W) (ssRNA ; dsDNA)
RNA: UAAACUACAGUGGUGCCUGGGUUUCAGCUACCCUGAGUUUCUCAACUCCGUUGAGACUUCCUCAGGUUCAAGCUGAAAAGAGCAUCUGUCCGGAAGGACCACUCCGGGUUAGGGCAGACCCGGCUCUUGGGCUUCCUUGGUCUUUGACUCUGGAGGAAACCUUCCGGCGUGUCGCAAGACAAGAUGUGAGCCUG
DNA 1: TAAACTACAGTGGTGCCTGG
DNA 2: CCAGGCACCACTGTAGTTTA

Assays:
Nuclease H = target: T1, Nuclease H; experiment: cell_activity; HEK293T; PAM AAC 3'; Table 16 SEQ IDs shifted, guide taken from Table 15; details: tags: N-term SV40 NLS, XTEN linker + C-term nucleoplasmin NLS
Nuclease W E715R = target: T2, Nuclease W E715R; experiment: cell_activity; HEK293T; PAM AAA; details: tags: N-term SV40 NLS, XTEN linker + C-term nucleoplasmin NLS
Experimental: Approximately 16 hours prior to transfection, 25,000 HEK293T cells in DMEM/10% FBS+Pen/Strep (D10 media) were plated into each well of a 96-well plate. On the day of transfection, the cells were 50-90% confluent. For each well to be transfected, a mixture of Lipofectamine 2000™ (ThermoFisher Scientific) and Opti-MEM™ (ThermoFisher Scientific) was prepared and incubated at room temperature for 5 minutes (Solution 1). After incubation, the Lipofectamine 2000™:Opti-MEM™ mixture was added to a separate mixture containing the CRISPR nuclease plasmid (NLS-tagged), RNA guide plasmid, and Opti-MEM™ (Solution 2). In the case of negative controls, the CRISPR nuclease plasmid was excluded. Solutions 1 and 2 were mixed by pipetting up and down, then incubated at room temperature for 25 minutes. Following incubation, the Solution 1 and 2 mixture was added dropwise to each well of a 96-well plate containing the cells. Approximately 72 hours post transfection, cells were trypsinized by adding TrypLE™ (Thermo Fisher Scientific) to the center of each well and incubating at 37° C. for approximately 5 minutes. D10 media was then added to each well and mixed to resuspend cells. […]
Cells were transfected, and samples were prepared for NGS as described in Example 1. Indel ratios, referring to the percentage of NGS reads comprising indels, were calculated for the reference and for each variant. […]

Binder | activity (Nuclease H) | fold change in indel ratio vs reference (Nuclease W E715R)
B1 | 0.0105 indel ratio | –
B2 | – | 3.94 fold indel vs reference
